Experiments:
PDK1 (recombinant) = system: T1, PDK1 (recombinant)
T1 sequence (O15530 1-556, species assumed, looked up): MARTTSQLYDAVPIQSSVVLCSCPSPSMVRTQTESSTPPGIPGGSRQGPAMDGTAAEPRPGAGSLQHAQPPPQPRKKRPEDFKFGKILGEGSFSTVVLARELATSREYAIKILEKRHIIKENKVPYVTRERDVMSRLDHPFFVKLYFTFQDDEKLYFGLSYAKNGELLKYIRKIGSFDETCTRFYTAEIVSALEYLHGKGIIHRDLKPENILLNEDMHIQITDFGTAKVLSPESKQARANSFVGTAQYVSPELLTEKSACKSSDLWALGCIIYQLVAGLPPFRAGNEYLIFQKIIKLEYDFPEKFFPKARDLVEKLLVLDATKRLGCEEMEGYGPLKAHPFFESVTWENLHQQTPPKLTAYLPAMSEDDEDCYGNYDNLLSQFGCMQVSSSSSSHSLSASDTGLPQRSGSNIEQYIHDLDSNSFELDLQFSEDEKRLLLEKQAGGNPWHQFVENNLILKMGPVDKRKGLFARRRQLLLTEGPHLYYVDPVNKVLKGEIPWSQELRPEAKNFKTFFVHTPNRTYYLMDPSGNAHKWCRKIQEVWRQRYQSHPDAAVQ

[1] = system: PI3-K (p85a/p110a complex)
[2] = system: recombinant S6K1 (highly purified)
[3] = system: recombinant S6K2 (highly purified)
Chain of recombinant S6K2 (highly purified) (chain, as listed by the source): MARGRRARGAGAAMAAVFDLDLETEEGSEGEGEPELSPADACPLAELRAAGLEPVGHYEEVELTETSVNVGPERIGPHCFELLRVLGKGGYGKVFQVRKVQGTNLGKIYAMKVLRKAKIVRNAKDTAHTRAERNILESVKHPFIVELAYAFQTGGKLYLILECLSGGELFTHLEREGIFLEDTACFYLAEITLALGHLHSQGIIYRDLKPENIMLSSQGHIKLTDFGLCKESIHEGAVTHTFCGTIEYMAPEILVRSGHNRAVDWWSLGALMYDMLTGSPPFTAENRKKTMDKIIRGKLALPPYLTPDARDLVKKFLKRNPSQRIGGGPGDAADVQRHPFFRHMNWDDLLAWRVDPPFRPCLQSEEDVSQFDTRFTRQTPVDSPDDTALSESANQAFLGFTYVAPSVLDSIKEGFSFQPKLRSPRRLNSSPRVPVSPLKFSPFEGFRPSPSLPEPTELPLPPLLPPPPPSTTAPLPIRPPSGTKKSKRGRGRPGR

## full-length p300
PDK1 (recombinant)
  in vitro acetylation by immunoprecipitated full-length p300: no acetylation is observed for PKB/Akt, PDK1, PI3-K (p85a/p110a complex) under conditions used
[1]
  in vitro acetylation by immunoprecipitated full-length p300: no acetylation is observed for PKB/Akt, PDK1, PI3-K (p85a/p110a complex) under conditions used
PKB/Akt (recombinant)
Chain of PKB/Akt (recombinant) (P31749 whole entry): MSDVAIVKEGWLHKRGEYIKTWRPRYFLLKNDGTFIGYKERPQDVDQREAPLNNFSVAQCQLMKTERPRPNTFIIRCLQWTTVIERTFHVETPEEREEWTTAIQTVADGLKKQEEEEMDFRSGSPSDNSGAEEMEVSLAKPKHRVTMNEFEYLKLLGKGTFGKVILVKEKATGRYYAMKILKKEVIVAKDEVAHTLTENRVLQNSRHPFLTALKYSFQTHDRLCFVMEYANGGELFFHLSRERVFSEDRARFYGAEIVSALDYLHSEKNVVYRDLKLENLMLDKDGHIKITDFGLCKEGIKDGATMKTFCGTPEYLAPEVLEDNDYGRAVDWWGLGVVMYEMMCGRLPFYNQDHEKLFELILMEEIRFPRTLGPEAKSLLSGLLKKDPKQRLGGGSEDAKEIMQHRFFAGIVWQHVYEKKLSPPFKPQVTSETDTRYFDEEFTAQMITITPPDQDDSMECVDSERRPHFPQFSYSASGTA
  in vitro acetylation by immunoprecipitated full-length p300: no acetylation is observed for PKB/Akt, PDK1, PI3-K (p85a/p110a complex) under conditions used
PKCa (recombinant)
  in vitro acetylation by immunoprecipitated full-length p300: We detected weak, but reproducible acetylation of PKCa
[2]
  site of in vitro acetylation (MALDI tandem mass spectrometry of tryptic peptide 509Q-R522): this peptide was acetylated on the Lysine 516
[3]
  in vitro acetylation by immunoprecipitated full-length p300: S6K2 is acetylated in the presence of p300 and AcCoA
  site of in vitro acetylation (MALDI mass spectrometry of Arg-C peptide 297 to 310): contains a lysine at position 2 (residue 298 in S6K2). This peptide was sequenced and the acetylated lysine was confirmed (data not shown)
